Source: the supplement of paper PMC10567573

B1: WDR41 (parent)
chain: WTMQAYERNFWDPSPQLDTQQEIK
B2: GOLPH3 (parent)
chain: FAPLLDEQYDLATKRVRQLLDLDP

Variants of: B1
Test: protein stability index of a GFP-peptide fusion (GPS, HEK-293T) (PSI 1-6); higher = more stable
Conditions: c terminus: a fixed tail appended
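Further: lentivirally expressed fusions sorted by FACS into six bins by GFP to DsRed ratio, PSI derived from sequencing read proportions per bin multiplied by bin number.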

Protein stability index: each site, then its substitutions
P13: M 2.34; D 3.07; N 2.29; F 1.82; R 3.01; L 3.3; H 2.33; I 2.6; G 2.1; W 1.76
T2: I 1.62; F 1.71; N 2.11; E 3.75; W 2.15; L 1.69; G 2.93; Q 2.89; V 2.14; M 2.14; S 2; Y 2.16; R 2.91
Q21: P 2.66; M 2.93; C 2.12; D 2.1; K 2.28; I 1.73; H 1.99; R 2.84; S 3.13; N 2.71; A 2.39; L 1.92; E 2.56
R8: F 2.54; G 2.59; N 3.41; Q 3.26; K 2.86; C 2.59; W 2.4; L 2.42; S 3.21; T 2.95; A 2.52; V 2.57
Y6: S 2.78; G 2.86; E 3.19; D 3.34; L 2.98; I 2.67; V 2.79; N 2.93; R 3.58; F 2.58; Q 2.83
W11: L 4.43; Q 3.93; H 4.04; G 3.94; E 4.57; V 3.54; F 3.15; K 4.75; A 4.26; C 3.66; R 4.47; I 3.91; M 3.58; Y 3.5; T 3.93
S14: R 2.37; E 3.22; D 3.26; W 2.07; N 2.74; Y 2.23; P 3.16; A 3.06; F 2.56; T 2.89; M 2.47; L 2.7; Q 2.76; G 3.05; C 2.59; I 2.17; K 2.09
I23: K 3.93; Y 2.32; P 2.97; A 2.99; T 2.83; F 2.43; L 2.91; D 3.61; W 2.12; Q 3.15; C 2.11; S 3.27; G 3.05; M 2.18; N 3.24; R 2.91
E7: G 2.7; D 3.25; Y 2.26; N 3.04; S 2.45; R 2.86; F 2.88; I 1.92; P 2.79; V 2.88; L 3.28; M 1.93
K24: R 2.58; Y 2.46; M 1.91; D 2.83; S 2.59; P 2.09; C 2.19; E 3.06; T 2.63; G 2.29; Q 2.44; L 1.76; H 2.29; W 1.46
A5: Y 2.18; E 3.65; M 2.71; T 2.57; K 2.96; H 3.47; D 3.33; F 1.91; V 2.12; P 2.49; Q 2.85; I 1.68; C 2.51
Q16: V 2.03; T 2.67; L 2.42; H 2.01; F 2.5; N 2.2; A 2.24; M 1.46; Y 1.68; S 1.82; G 2.83; I 2.33; D 2.65; C 2.17; E 2.64; R 2.14; W 1.4
P15: A 2.82; W 1.75; I 2.15; T 3.12; N 2.6; M 2.7; S 2.02; D 3.03; Q 2.08; K 2.43; H 2.56; V 2.19; R 1.99
M3: E 3.89; V 3.16; Y 2.24; T 2.86; K 2.96; S 1.79; L 2.69; N 2.34; I 2.14; H 2.63; W 2.77; D 3.96; Q 3.07
D12: Y 1.4; I 2.15; G 1.96; H 2.73; K 2.06; E 2.31; L 3.49; M 2.93; F 3.8; N 3.51; C 2.25; S 2.51; P 3.31; R 3.92; Q 1.37
E22: L 2.07; G 2.34; D 1.85; K 2.37; C 2.55; P 2.34; W 1.88; Q 2.1; S 2.96; N 2.41; V 2.36; H 1.8; Y 2.17; R 2.15; A 2.45; I 2.81
F10: R 3.55; D 4.7; W 2.77; K 3.72; L 3.95; E 3.92; S 3.95; P 3.65; C 3.52; V 3.68; G 3.25; N 3.7
N9: T 2.52; Y 2.08; P 2.71; Q 1.64; H 1.6; L 1.35; K 1.94; G 2.64; R 1.63; W 1.59; S 2.46; I 2.04; E 3.29
T19: W 2.22; H 2.74; M 2.35; E 2.37; V 2.35; Y 1.62; A 2.73; C 2.19; L 2.5; S 2.91; Q 2.55
Q20: Y 2.07; E 2.35; D 3.42; K 2.28; R 2.44; M 2.27; I 2.07; P 2.06; N 2.88; S 2.07; G 2.19; A 1.64
L17: F 2.94; T 2.31; C 2.58; I 2.25; W 2.37; R 3.23; N 2.8; M 3.2; Q 3.18; D 3.56; H 3.32; V 2.75; E 2.9; A 2.6; Y 2.49
Q4: M 2.92; T 1.95; Y 2.42; A 2.23; K 1.5; D 2.26; W 1.72; R 1.8; N 1.67; H 1.89; L 2.35; F 2.38
W1: P 4.6; F 2.44; V 3.47; I 3.35; Q 4.81; Y 3.58; M 3.77; R 4.08; K 4.15; E 4.41; N 4.46
D18: I 2.28; W 1.83; Q 2.34; A 2.32; H 2.2; V 2.63; E 2.7; G 2.56; R 2.02; C 1.95; K 2.16; M 2.19; L 2.63; Y 1.97; S 2.23; P 2.24

Variants of: B2
Test: as above
Conditions: c terminus: a fixed tail appended

Protein stability index: each site, then its substitutions
P3: Y 2.28
P24: A 1.81
F1: N 3.86
Q8: A 2.29; R 1.39
Y9: G 2.24
L19: C 1.49
L5: G 2.24
V16: T 2.59
L11: D 3.09; G 2.38
L22: H 2.55
